{
  "source": "patent US7939292B2",
  "about": "“Modified heparinase III and methods of sequencing therewith” (Massachusetts Institute of Technology, priority 2000, dated 2011)",
  "molecules": {"B1": {"name": "heparinase III: HLGAG degrading enzyme from Flavobacterium heparinum (EC 4.2.2.8), SEQ ID NO:2; cleaves heparan sulfate (protein, listed as Pedobacter heparinus)", "chain": "MTTKIFKRIIVFAVIALSSGNILAQSSSITRKDFDHINLEYSGLEKVNKAVAAGNYDDAAKALLAYYREKSKAREPDFSNAEKPADIRQPIDKVTREMADKALVHQFQPHKGYGYFDYGKDINWQMWPVKDNEVRWQLHRVKWWQAMALVYHATGDEKYAREWVYQYSDWARKNPLGLSQDNDKFVWRPLEVSDRVQSLPPTFSLFVNSPAFTPAFLMEFLNSYHQQADYLSTHYAEQGNHRLFEAQRNLFAGVSFPEFKDSPRWRQTGISVLNTEIKKQVYADGMQFELSPIYHVAAIDIFLKAYGSAKRVNLEKEFPQSYVQTVENMIMALISISLPDYNTPMFGDSWITDKNFRMAQFASWARVFPANQAIKYFATDGKQGKAPNFLSKALSNAGFYTFRSGWDKNATVMVLKASPPGEFHAQPDNGTFELFIKGRNFTPDAGVFVYSGDEAIMKLRNWYRQTRIHSTLTLDNQNMVITKARQNKWETGNNLDVLTYTNPSYPNLDHQRSVLFINKKYFLVIDRAIGEATGNLGVHWQLKEDSNPVFDKTKNRVYTTYRDGNNLMIQSLNADRTSLNEEEGKVSYVYNKELKRPAFVFEKPKKNAGTQNFVSIVYPYDGQKAPEISIRENKGNDFEKGKLNLTLTINGKQQLVLVP"}},
  "key": {"B16BL6 melanoma [1]": {"system": "B16BL6 melanoma", "experiment": "Primary tumor growth of B16BL6 melanoma in mice treated with heparinases", "assay_type": "in vivo", "text": "Heparinases I and III, which have very distinct substrate specificities for cleaving HLGAGs, were employed as tools to investigate the role of HLGAGs in tumor growth and metastasis. While heparinase I cleaves at the highly sulfated regions of HLGAGs, heparinase III only cleaves at the under-sulfated regions of the polysaccharide chain, thereby rendering these enzymes powerful tools to investigate in vivo and in vitro roles of HLGAGs, in development, morphogenesis, angiogenesis etc. To examine the roles of HLGAGs in tumor growth and metastasis, we used B16BL6 melanoma as a model system and treated tumor-bearing mice with either heparinases I or III to investigate both primary tumor growth as well as tumor metastasis. Consistent with the current paradigm, heparinase I accelerated tumor growth (FIG. 8). At a dosage of 0.5 mg/kg/day of heparinase I, tumor growth was increased by about 39%. […] Inhibition of primary tumor growth by heparinase III was first observed at 2 mg/kg per day. Tumor growth was inhibited by 73% at 12 mg/kg per day, the maximum dosage tested in the study (FIG. 8).\nMice, 15 days after tumor implantation with B16BL6 melanoma, were examined. 4×10^5 log growth phase B16BL6 melanoma cells in 0.1 ml PBS were injected to the flank of C57BL/6 mice on day 1. Daily injection of 0.1 ml of PBS, heat inactivated hep III or active heparinase III (2 mg/ml, recombinantly expressed, purified, buffer exchanged with PBS, and concentrated) started at the day 4 and continued throughout the experiment. At day 7, osmotic pumps (100 μl capacity delivering at 0.5 μl per hour) containing PBS or 3 mg/ml hep III were implanted subcutaneously at a place remote from the tumor site. Mice were sacrificed at day 15.\nFIG. 8 depicts the tumor volume of the tumors isolated from the mice described above. Tumor volume was measured daily after day 7 with a caliper and calculated with the formula [volume=0.52×(width)^2×(length)]."}, "B16BL6 melanoma [2]": {"system": "B16BL6 melanoma", "experiment": "Histological examination of tumor samples (apoptosis, TdT labeling)", "assay_type": "in vivo, mice", "protocol": "Immunohistochemistry was done as described (Parangi et al., 1996; O'Reilly et al., 1994) with minor modifications. Briefly, tumor tissues were fixed in either 4% (vol/vol) formaldehyde overnight for von Willebrand factor (vWF) staining and terminal deoxynucleotide transferase (TdT) labeling or in Glyo-Fixx solution overnight for Ki-67 nuclear antigen staining. Tissues were embedded in paraffin according to standard histological procedures. For vWF staining, sections (5 μm thick) were incubated with 0.2 N HCl for 10 min. autoclaved in a Coplin jar immersed with Target retrieval Solution (Dako) for 15 min. and permeabilized with 2 μg/ml proteinase K at 37° C. for 15 min. Sections were incubated with rabbit anti-human vWF antibody coupled with horseradish peroxidase (HRP) (Dako). Positive staining was detected by substrate reaction with diaminobenzidine. Sections were counterstained with Gill's hematoxylin and mounted in Permount (Fisher). […] Capillary density was determined by counting the number of vWF-positive capillaries per high power field (HPF, ×200). The proliferative and apoptotic indices of tumor cells within areas of viable tumor were estimated from the percentage of cells scored under a light microscope at 400-fold magnification. A minimum of 2000 cells were counted in each animal. # indicates standard error."}, "B16BL6 melanoma cells": {"system": "B16BL6 melanoma cells", "experiment": "Lung metastasis of heparinase treated B16BL6 cells after tail vein injection", "assay_type": "in vivo, mice", "settings": "cells treated 30 min at 37° C. before tail vein injection; 13 days", "protocol": "We next investigated the ability of heparinase treated B16BL6 melanoma cells to metastasize to the lungs. B16BL6 cells in log growth phase were briefly trypsinized and resuspended in PBS to a final concentration of 1×10^6 per ml. Prior to injection, cells were treated with either PBS, hep I […] or hep III […] for 30 min. at 37° C. 0.2 ml cell suspensions (2×10^5 cells) were injected slowly via tail vein. Mice were sacrificed 13 days later and lungs were harvested, rinsed with tap water. The number of nodules on lung surface were counted with the assistance of a dissection microscope. * indicates p<0.05 (Mann-Whitney test)."}},
  "data": [
    {"molecule": "B1", "values": [
      {"measurement": "inhibition of tumor growth", "setting": "B16BL6 melanoma [1]; 12 mg/kg per day, maximum dosage tested", "value": 73, "unit": "%"},
      {"measurement": "dosage at which inhibition of primary tumor growth was first observed", "setting": "B16BL6 melanoma [1]; mouse, in vivo", "value": 2, "unit": "mg/kg per day"},
      {"measurement": "primary tumor growth", "setting": "B16BL6 melanoma [1]; nude mice and C57BL/6 mice, subcutaneous injections", "value": "significant inhibition in primary tumor growth"},
      {"measurement": "apoptosis in tumor samples, enzyme treated tumors", "setting": "B16BL6 melanoma [2]", "value": "increased apoptosis"},
      {"measurement": "ability of treated B16BL6 cells to metastasize to the lungs compared to PBS treated cells", "setting": "B16BL6 melanoma cells", "value": "significantly less able to metastasize to the lungs"}
    ]}
  ]
}
